The results in this text go back to patent publication US20240166738A1 (Alector, published 2024).

Assay [1] has as its target human TMEM106B (human, UniProt Q9NUM4 2-274). Description: cell-based or functional assay. Further: test concentration or dose not given here.
The target of assay [2] is T1, GST-TMEM106B (truncated, comprising amino acids 122-210 of SEQ ID NO:1) (human, UniProt Q9NUM4 122-210).
T1 construct: GST written first by the name only; also called truncated GST-TMEM106B fusion protein; GST-TMEM106B polypeptide fusion; not shown: GST fusion partner
In words: pre-mix epitope binning, antibody immobilized on chip array.

B1: TM-65 (antibody, V domains shown)
VH: QVQLQQPGAEFVKPGASVRLSCKTSGYTFTSSWMHWVKQRPGQGLEWIGEINPKNGGTNYNEKFKTKATLTVDKSSNTAYMQLSSLTSEDSAVYYCTIPTWFTYWGQGTLVTVSS
VL: DIQMNQSPSSLSASLGDTITITCRASQNINIWLSWYQQKPGNVPKLLIYKASNLHTGVPSRFSGSGSGTGFTLTISSLQPEDIATYYCLQGQSYPYTFGGGTKLGIK
notes: mouse hybridoma mAb
In the case of B1, in assay [1], the “% Protection from CPE” value is 4%. For the same molecule, in assay [2], the binding result is “no binding (tested: 55 nM antigen (2 ug/mL))”.

B2: TM-69 (antibody, V domains shown)
VH: QVQLKESGPDLVQPSQTLSLTCTVSGFSFTSYGVHWVRQPPGKGLEWVGIMGWDDKKYYNSALKSRLSISRDTSKNQVFLKLSSLQTEDTAMYYCTREAGPYGMDYWGQGTSVTVSS
VL: DVVMTQTPLSLPVSLGDQASISCRSSQSLVHSNGNTYLHWYLQKPGQSPKLLIYKVSNRFSGVPDRFSGSGSGTDFTLKISRVEAEDLGVYFCSQNTHVPLTFGAGTKLELK
notes: mouse hybridoma mAb
With B2, the “% Protection from CPE” value in assay [1] stood at 4.3%. Moreover, in assay [2], the binding result is listed as “no binding (tested: 55 nM antigen (2 ug/mL))”.

B3: TM-52 (antibody, V domains shown)
VH: QVQLQQPGAELVKPGASVKLSCKASGYTFTNYWMHWVKQRPGQGLDWIGNIDPSDSETHYNQKFKDKATLTVDKVSSTAYMQLSSLTSEDSAVYYCARRGYYGRSPFAYWGQGTLVTVSA
VL: ENVLTQSPAIMSASPGEKVTMTCSASSSVSYMHWYQQKSNTSPKLWIYDTSKLASGVPGRFSGSGSGNSYSLTISSAEAEDVATYYCFQGSGYPLTFGAGTKLELK
notes: mouse hybridoma mAb
B3: in assay [1], the “% Protection from CPE” value stood at 3.6%. For the same molecule, the binding result in assay [2] is given as “no binding (tested: 55 nM antigen (2 ug/mL))”.

B4: TM-33 (antibody, V domains shown)
VH: EFQLQQSGPELVKPGASVKISCKASGYSFTDYNMNWVKQSNGKSLEWIGVINPNYGTTSYNQKFKGKATLTVDQSSSTAYMQLNSLTSEDSAVYYCASSYWGQGTLVTVSA
VL: DIVMTQSQKFMSTTVGDRVSITCKASQNVGTAVAWYQQKPGQSPKLLIYSASNRYTGVPDRFTGSGSGTDFTLTISNMQSEDLADYFCQQYSSYPYTFGGGTKLEIK
notes: mouse hybridoma mAb
For B4, the “% Protection from CPE” value in assay [1] worked out at 4.4%. In assay [2], the binding result was “no binding (tested: 55 nM antigen (2 ug/mL))”.

B5: TM-8 (antibody, V domains shown)
VH: QIQLVQSGPELKKPGETVKISCKASGYTFTDYPMHWVKQAPGKGFKWMGVIYTDTGEPKYAEVFKGRFAFSLETSASTAYLQINNLKNEDTATYFCVRRLAYWGQGTLVTVSA
VL: DIKMTQSPSSMYASLGERVTITCKASQDINSYLSWFQQKPGKSPKTLIFRANRLVDGVPSRFSGSGSGQDYSLTISSLEYEDMGIYYCLQYDEFPLTFGAGTKLEMK
notes: mouse hybridoma mAb
As for B5, in assay [1], the “% Protection from CPE” value stood at 3.8%. Also, the binding result in assay [2] is given as “no binding (tested: 55 nM antigen (2 ug/mL))”.

B6: TM-2 (antibody, V domains shown)
VH: HIQLVQSGPELKKPGETVKISCKASGYTFTEYPMHWVKQAPGKGFRWMGMIYTNTGEPTYAAEFKGRFAFSLETSASTGYLQINNLKNEDSATYFCVTAGYWGQGTLVTVSA
VL: QIVLTQSPAILSASPGEKVTMTCRASSSVSYIHWFLQKPGSSPKPWIYATSNLASGVPFRFIGSGSGTSYSLTISGVEAEDSATYYCQQWSSNPSTFGAGTKLELK
notes: mouse hybridoma mAb
As to B6, in assay [1], the “% Protection from CPE” value was found to be 4.3%. Moreover, in assay [2], the binding result is reported as “no binding (tested: 55 nM antigen (2 ug/mL))”.

B7: TM-14 (antibody, V domains shown)
VH: QVQLQQSGPELVRPGTSVKVSCKASGYAFTNYLIEWVKQRPGQGLEWIGVINPGGGNTDYSEKFKDKATLTADKSSNTAYIQLSSLTSEDSAVYFCARSPYSSYVGYAVDYWGQGTSVTVSS
VL: DIQMTQSPSSLSASLGERVSLTCRASQDIGSNLNWLQQEPDGTIKRLIYATSSLDSGVPKRFSGSRSGSDYSLTISSLESEDFVVYYCLQYASSPRTFGGGTRLEIK
notes: mouse hybridoma mAb
Regarding B7, the “% Protection from CPE” value in assay [1] was 4%. Also, in assay [2], the binding result is listed as “no binding (tested: 55 nM antigen (2 ug/mL))”.

B8: TM-71 (antibody, V domains shown)
VH: EVQLVESGGALVKPGGSLKLSCAASGFTFSNYAMSWVRQTPEKRLEWVATIGYGGSYSYYPDSVKGRFTISRDNAKNTLYLQMSSLRSEDTALYYCARQDSNYEGVWFAYWGQGTLVTVSS
VL: DIVMTQAAPSVPVTPGESVSISCRSSKSLLHTNGNTYLFWFIQRPGQSPHLLIYRKSNLASGVPDRFSGSGSGTAFTLRISRVEAEDVGVYYCMQHLEYPFTFGSGTKLEIK
notes: mouse hybridoma mAb
Regarding B8, in assay [1], the “% Protection from CPE” value amounted to 3.2%. Besides, the binding result in assay [2] was “no binding (tested: 55 nM antigen (2 ug/mL))”.
